Experimental data reported in PMC6750108, “Crystal Structure of 4-Hydroxyphenylpyruvate Dioxygenase in Complex with Substrate Reveals a New Starting Point for Herbicide Discovery” (Research, 2019).

Biological target: the molecule itself
Assay: crystal structure; AtHPPD-HPPA complex, hanging drop vapor diffusion, with CoCl2 and HPPA; reservoir 36% (w/v) PEG 400, 0.1 M NaCl, 0.1 M sodium acetate pH 5.0, 18°C; space group P 21, four molecules per asymmetric unit

B1: Arabidopsis thaliana 4-hydroxyphenylpyruvate dioxygenase (enzyme, UniProt P93836 1-445, looked up)
chain: MGHQNAAVSENQNHDDGAASSPGFKLVGFSKFVRKNPKSDKFKVKRFHHIEFWCGDATNVARRFSWGLGMRFSAKSDLSTGNMVHASYLLTSGDLRFLFTAPYSPSLSAGEIKPTTTASIPSFDHGSCRSFFSSHGLGVRAVAIEVEDAESAFSISVANGAIPSSPPIVLNEAVTIAEVKLYGDVVLRYVSYKAEDTEKSEFLPGFERVEDASSFPLDYGIRRLDHAVGNVPELGPALTYVAGFTGFHQFAEFTADDVGTAESGLNSAVLASNDEMVLLPINEPVHGTKRKSQIQTYLEHNEGAGLQHLALMSEDIFRTLREMRKRSSIGGFDFMPSPPPTYYQNLKKRVGDVLSDDQIKECEELGILVDRDDQGTLLQIFTKPLGDRPTIFIEIIQRVGCMMKDEEGKAYQSGGCGGFGKGNFSELFKSIEEYEKTLEAKQLVG
notes: 4-hydroxyphenylpyruvate dioxygenase, Arabidopsis thaliana, UniProtKB P93836, full-length protein in pET15b; Crystallised with cobalt(II) chloride and the substrate HPPA; also called AtHPPD; HPPD; source: E. coli BL21 (DE3), purified (Ni-NTA, anion exchange, size exclusion chromatography)
binding result: binds
